According to publication PMC8261865, “A Structural View on the Stereospecificity of Plant Borneol‐Type Dehydrogenases” (Chemcatchem, 2021):

Key:
[1] = target: Borneol-type dehydrogenase 1 from Salvia rosmarinus (Salvia rosmarinus); assay: SEC-MALS; Superdex 200 increase 10/300 with miniDAWN TREOS and refractive index detector; 18 °C
[2] = target: Borneol-type dehydrogenase 1 from Salvia rosmarinus (Salvia rosmarinus); assay: SEC; HiLoad 16/60 Superdex 200; Tris-HCl 100 mM, 500 mM NaCl, pH 8; 1 mL/min; calibrated with mass standards (44-440 kDa)
[3] = target: Borneol-type dehydrogenase 1 from Salvia rosmarinus (Salvia rosmarinus); assay: crystal structure; sitting-drop vapor diffusion at 18 °C; two conditions: high NaCl (2.7-3.2 M, Bis-Tris pH 5.5-7.2) and pentaerythritol propoxylate (PO/OH, HEPES pH 7.0-7.8); tetramer in both
[4] = target: Borneol-type dehydrogenase 2 from Salvia rosmarinus (Salvia rosmarinus); assay: SEC; HiLoad 16/60 Superdex 200; Tris-HCl 100 mM, 500 mM NaCl, pH 8; 1 mL/min; calibrated with mass standards (44-440 kDa)
AaADH2 = target: T1, AaADH2 (Artemisia annua, UniProt E5DD06); assay: spectrophotometric cofactor use; assay type: biochemical
T1 construct: gene Adh2
T1 sequence (E5DD06 1-265): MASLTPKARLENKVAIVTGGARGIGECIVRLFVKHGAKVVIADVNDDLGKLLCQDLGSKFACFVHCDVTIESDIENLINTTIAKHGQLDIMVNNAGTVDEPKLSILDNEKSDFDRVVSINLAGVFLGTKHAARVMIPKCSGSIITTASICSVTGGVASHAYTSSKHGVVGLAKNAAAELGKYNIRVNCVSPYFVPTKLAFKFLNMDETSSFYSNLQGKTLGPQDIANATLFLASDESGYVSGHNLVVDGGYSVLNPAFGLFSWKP

[5] = target: Borneol-type dehydrogenase 3 from Salvia officinalis (Salvia officinalis L.); assay: SEC; HiLoad 16/60 Superdex 200; Tris-HCl 100 mM, 500 mM NaCl, pH 8; 1 mL/min; calibrated with mass standards (44-440 kDa)
SrBDH1 = target: T2, SrBDH1 (Salvia rosmarinus, UniProt A0A8K1HPF5); assay: X-ray crystal structure of binary complex ([…] Å); assay type: binding; details: NAD+ co-purified with the enzyme; two crystal forms (high salt; PO/OH)
T2 construct: N-terminal His-tag (pET15b), codon-optimised, E. coli BL21(DE3); homotetramer by SEC/MALS
T2 sequence (A0A8K1HPF5 1-270): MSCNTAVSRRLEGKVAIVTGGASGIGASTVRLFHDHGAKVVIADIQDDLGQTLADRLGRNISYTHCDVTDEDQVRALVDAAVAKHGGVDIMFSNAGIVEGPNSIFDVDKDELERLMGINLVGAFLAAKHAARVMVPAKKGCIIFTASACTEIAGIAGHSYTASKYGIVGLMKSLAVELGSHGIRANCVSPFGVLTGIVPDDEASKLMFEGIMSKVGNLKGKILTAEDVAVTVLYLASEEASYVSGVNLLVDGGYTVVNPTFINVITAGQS

Work on “Borneol-type dehydrogenase 1 from Salvia rosmarinus (enzyme)” yielded a stoichiometry N [1] of 4, a stoichiometry N [2] of 4 and a stoichiometry N [3] of 4.
In the case of “Borneol-type dehydrogenase 2 from Salvia rosmarinus (enzyme)”, the stoichiometry N [4] is reported as 4.
`NC(=O)c1ccc[n+]([C@@H]2O[C@H](COP(=O)(O)OP(=O)(O)OC[C@H]3O[C@@H](n4cnc5c(N)ncnc54)[C@H](OP(=O)(O)O)[C@@H]3O)[C@@H](O)[C@H]2O)c1` [NADP^+] was tested, and the spectrophotometric cofactor use (AaADH2) was “AaADH2 was the only enzyme also capable of using NADP^+”.
For “Borneol-type dehydrogenase 3 from Salvia officinalis (enzyme)”, the stoichiometry N [5] was 4.
For `NC(=O)c1ccc[n+]([C@@H]2O[C@H](COP(=O)(O)OP(=O)(O)OC[C@H]3O[C@@H](n4cnc5c(N)ncnc54)[C@H](O)[C@@H]3O)[C@@H](O)[C@H]2O)c1` [NAD^+], the “X-ray crystal structure of binary complex (2.8 Å)” value (SrBDH1) was “the structure represents the binary complex (SrBDH1 ⋅ NAD^+ /high salt)”.
